Data: patent US20230348881

How the values were obtained:
[1] = target: Mutant 2, modified PPE proprotein with the MMP12 cleavage site, PPE optimized (SEQ ID NO: 9)
[2] = target: Mutant 3, modified PPE proprotein with the MMP12 cleavage site, balanced (SEQ ID NO: 10)
[3] = target: exemplary modified PPE proproteins
[4] = target: wild-type PPE proprotein as used in Example 2
Chain of wild-type PPE proprotein as used in Example 2 (chain, as listed by the source): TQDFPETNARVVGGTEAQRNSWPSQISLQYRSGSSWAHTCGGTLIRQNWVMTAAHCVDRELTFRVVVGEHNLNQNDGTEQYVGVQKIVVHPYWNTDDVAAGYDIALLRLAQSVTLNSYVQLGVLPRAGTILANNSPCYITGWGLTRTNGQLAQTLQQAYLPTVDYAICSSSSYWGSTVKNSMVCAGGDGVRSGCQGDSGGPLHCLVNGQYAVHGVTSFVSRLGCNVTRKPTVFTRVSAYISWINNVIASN

Chain of Mutant 3, modified PPE proprotein with the MMP12 cleavage site, balanced (SEQ ID NO: 10) (chain, as listed by the source mutant): as the sequence (chain, as listed by the source) above, with T7G, N8A, R10G, V11L counted along it
Chain of Mutant 2, modified PPE proprotein with the MMP12 cleavage site, PPE optimized (SEQ ID NO: 9) (chain, as listed by the source mutant): as the sequence (chain, as listed by the source) above, with T7G, N8A, R10G counted along it

Row | Protein | protease cleavage by SDS-PAGE and Coomassie blue staining [1] | protease cleavage by SDS-PAGE and Coomassie blue staining [2] | catalytic activity after protease digestion (colorimetric substrate assay), FIG. 4B [3] | catalytic activity after protease digestion (colorimetric substrate assay, N-Methoxysuccinyl-Ala-Ala-Pro-Val p-nitroanilide), FIG. 4A [3] | catalytic activity after protease digestion (colorimetric substrate assay), FIG. 4B [4]
1 | human MMP12 (matrix metalloproteinase-12) (protein) GPVWRKHYITYRINNYTPDMNREDVDYAIRKAFQVWSNVTPLKFSKINTGMADILVVFARGAHGDFHAFDGKGGILAHAFGPGSGIGGDAHFDEDEFWTTHSGGTNLFLTAVHEIGHSLGLGHSSDPKAVMFPTYKYVDINTFRLSADDIRGIQSLYG | the MMP12 protease cleaved the exemplary modified PPE proteins designated as Mutant 2 (3A) | the MMP12 protease cleaved the exemplary modified PPE proteins designated as ... Mutant 3 (3B) | catalytically-active after incubation with MMP12 | catalytically-active after incubation by MMP12, relative to the activity of the native PPE as a control | catalytically-inactive after incubation with MMP12 or no protease
2 | human MMP7 (protein) YSLFPNSPKWTSKVVTYRIVSYTRDLPHITVDRLVSKALNMWGKEIPLHFRKVVWGTADIMIGFARGAHGDSYPFDGPGNTLAHAFAPGTGLGGDAHFDEDERWTDGSSLGINFLYAATHELGHSLGMGHSSDPNAVMYPTYGNGDPQNFKLSQDDIKGIQKLYGKRSNSRKK | – | – | partially-catalytically-active after incubation with MMP7 | – | –
